T1: cynomolgus CD47-ECD-Avi-His (cynomolgus monkey)
T1 construct: also called recombinant cynomolgus monkey CD47-avi-his protein
T1 chain: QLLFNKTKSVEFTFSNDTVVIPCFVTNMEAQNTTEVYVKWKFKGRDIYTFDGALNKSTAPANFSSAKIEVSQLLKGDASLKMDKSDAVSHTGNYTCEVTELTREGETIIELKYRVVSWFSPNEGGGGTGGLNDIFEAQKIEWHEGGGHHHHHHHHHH

T2: human FcγR2a-ECD-His (human, UniProt P12318 34-208)
T2 construct: His-tagged fusion made in house (UniProt P12318); The SPR method names only 'Fc-receptors IIa, IIb, and IIIa'; also called FcγRIIa; Fc-receptor IIa
T2 chain: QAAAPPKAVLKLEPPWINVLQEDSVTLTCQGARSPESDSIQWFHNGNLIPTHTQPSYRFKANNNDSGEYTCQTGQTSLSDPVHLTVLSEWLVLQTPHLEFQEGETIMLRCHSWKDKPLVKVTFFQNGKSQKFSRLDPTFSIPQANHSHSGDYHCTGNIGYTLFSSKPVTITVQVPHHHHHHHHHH

T3: human FcγR2b-ECD-His (human, UniProt P31994 46-217)
T3 construct: His-tagged fusion made in house (UniProt P31994); also called FcγRIIb; Fc-receptor IIb
T3 sequence: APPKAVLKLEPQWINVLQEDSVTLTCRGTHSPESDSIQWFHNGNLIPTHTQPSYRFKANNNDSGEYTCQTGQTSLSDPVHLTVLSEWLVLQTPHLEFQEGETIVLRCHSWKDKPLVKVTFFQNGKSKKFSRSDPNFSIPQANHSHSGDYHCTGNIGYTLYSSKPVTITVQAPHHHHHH


Legend:
human CD47-ECD-Avi-His = molecular target: T4, human CD47-ECD-Avi-His (human); assay: SPR, CD47 amine-coupled, Fab analyte, 1:1 fit
T4 construct: also called recombinant human CD47-avi-his protein; recombinant human CD47 protein

[1] = molecular target: T1, cynomolgus CD47-ECD-Avi-His; assay: SPR, CD47 amine-coupled, Fab analyte, 1:1 fit
[2] = molecular target: Avi-Tagged FcγRIa (Acrobiosystems, FCA-H82E8) (UniProt P12314 16-288, biotinylated (captured with Biotin CAPture kit)); assay: SPR, FcγRIa captured on CAP chip, antibody analyte; reference trastuzumab control IgG1
human FcγR2a-ECD-His = molecular target: T2, human FcγR2a-ECD-His; assay: SPR steady state, antibody on protein G chip, receptor analyte; reference trastuzumab control IgG1
human FcγR2b-ECD-His = molecular target: T3, human FcγR2b-ECD-His; assay: as above
human FcγR3a-ECD-His = molecular target: T5, human FcγR3a-ECD-His (human, UniProt P08637 17-193); assay: as above
T5 construct: His-tagged fusion made in house (UniProt P08637); also called FcγRIIIa; Fc-receptor IIIa

Kd (human CD47-ECD-Avi-His) [nM]	Kd [1] [nM]	fold gain in affinity vs control [2] [fold]	fold gain in affinity vs control (human FcγR2a-ECD-His) [fold]	fold gain in affinity vs control (human FcγR2b-ECD-His) [fold]	fold gain in affinity vs control (human FcγR3a-ECD-His) [fold]	Binder
1010	1120	–	–	–	–	anti-CD47-UCP02-B3 FAB (Fab, V domains shown, human IgG1 Fab) VH: QVQLVQSGAEVKKPGSSVKVSCKASGGRFRLYGINWVRQAPGQGLEWMGGISPIDGYAAYAQKFQGRVTITADESTSTAYMELSSLRSEDTAVYYCARSRRPYSASASYPGYGMDVWGQGTLVTVSS VL: not shown
–	–	12	0.5	1	3	BEAT CD38/CD47-32 (bispecific antibody, human IgG1, kappa, 2+1 monoparatopic format; E269D + S298A + S324N + E333A in both heavy chains) heavy 1: EVQLVESGGGLIQPGGSLRLSCAASGFTLSRNTMHWVRQAPGKGLEWVSVIYQSGVTRYADSVKSRFTISRDNSKNTLYLQMNSLRAEDTAVYYCARGRYGVAGGPGYAFDVWGQGTLVTVSSASTKGPSVFPLAPSSKSTSGGTAALGCLVKDYFPEPVTVSWNSGALTSGVHTFPAVLQSSGLYSLSSVVTVPSSSLGTQTYICNVNHKPSNTKVDKKVEPKSCDKTHTCPPCPAPELLGGPSVFLFPPKPKDTLMISRTPEVTCVVVDVSHDDPEVKFNWYVDGVEVHNAKTKPREEQYNATYRVVSVLTVLHQDWLNGKEYKCKVNNKALPAPIAKTISKAKGQPREPAVYTLPPSREEMTKNQVKLVCLVTGFYPSDIAVEWESSGQPENNYYTTPPMLDSDGSFSLVSWLNVDKSRWQQGNIFSCSVMHEALHNRFTQKSLSLSPG heavy 2: QVQLVQSGAEVKKPGSSVKVSCKASGLPDATYAIGWVRQAPGQGLEWMGRIIPRLDAEHYAQKFQGRVTITADESTSTAYMELSSLRSEDTAVYYCARGLGYYLYSSYYFDIWGQGTLVTVSSASTKGPSVFPLAPSSKSTSGGTAALGCLVKDYFPEPVTVSWNSGALTSGVHTFPAVLQSSGLYSLSSVVTVPSSSLGTQTYICNVNHKPSNTKVDKKVEPKSCGGGGSGGGGSGGGGSQVQLVQSGAEVKKPGSSVKVSCKASGLPDATYAIGWVRQAPGQGLEWMGRIIPRLDAEHYAQKFQGRVTITADESTSTAYMELSSLRSEDTAVYYCARGLGYYLYSSYYFDIWGQGTLVTVSSASTKGPSVFPLAPSSKSTSGGTAALGCLVKDYFPEPVTVSWNSGALTSGVHTFPAVLQSSGLYSLSSVVTVPSSSLGTQTYICNVNHKPSNTKVDKKVEPKSCDKTHTCPPCPAPELLGGPSVFLFPPKPKDTLMISRTPEVTCVVVDVSHDDPEVKFNWYVDGVEVHNAKTKPREEQYNATYRVVSVLTVLHQDWLNGKEYKCKVNNKALPAPIAKTISKAKGQPREPEVATFPPSRDELTKNQVTLVCLVTGFYPSDIAVEWESNGQPENNYKTDPPLLESQGSFALSSRLRVDKSRWQQGNVFSCSVMHEALHNHYTQKSLSLSPG light: not shown
–	–	874	0.4	1	4	BEAT CD38/CD47-34 (bispecific antibody, human IgG1, kappa, 2+1 monoparatopic format; E269D + S298A + S324N + K334A in both heavy chains) heavy 1: EVQLVESGGGLIQPGGSLRLSCAASGFTLSRNTMHWVRQAPGKGLEWVSVIYQSGVTRYADSVKSRFTISRDNSKNTLYLQMNSLRAEDTAVYYCARGRYGVAGGPGYAFDVWGQGTLVTVSSASTKGPSVFPLAPSSKSTSGGTAALGCLVKDYFPEPVTVSWNSGALTSGVHTFPAVLQSSGLYSLSSVVTVPSSSLGTQTYICNVNHKPSNTKVDKKVEPKSCDKTHTCPPCPAPELLGGPSVFLFPPKPKDTLMISRTPEVTCVVVDVSHDDPEVKFNWYVDGVEVHNAKTKPREEQYNATYRVVSVLTVLHQDWLNGKEYKCKVNNKALPAPIEATISKAKGQPREPAVYTLPPSREEMTKNQVKLVCLVTGFYPSDIAVEWESSGQPENNYYTTPPMLDSDGSFSLVSWLNVDKSRWQQGNIFSCSVMHEALHNRFTQKSLSLSPG heavy 2: QVQLVQSGAEVKKPGSSVKVSCKASGLPDATYAIGWVRQAPGQGLEWMGRIIPRLDAEHYAQKFQGRVTITADESTSTAYMELSSLRSEDTAVYYCARGLGYYLYSSYYFDIWGQGTLVTVSSASTKGPSVFPLAPSSKSTSGGTAALGCLVKDYFPEPVTVSWNSGALTSGVHTFPAVLQSSGLYSLSSVVTVPSSSLGTQTYICNVNHKPSNTKVDKKVEPKSCGGGGSGGGGSGGGGSQVQLVQSGAEVKKPGSSVKVSCKASGLPDATYAIGWVRQAPGQGLEWMGRIIPRLDAEHYAQKFQGRVTITADESTSTAYMELSSLRSEDTAVYYCARGLGYYLYSSYYFDIWGQGTLVTVSSASTKGPSVFPLAPSSKSTSGGTAALGCLVKDYFPEPVTVSWNSGALTSGVHTFPAVLQSSGLYSLSSVVTVPSSSLGTQTYICNVNHKPSNTKVDKKVEPKSCDKTHTCPPCPAPELLGGPSVFLFPPKPKDTLMISRTPEVTCVVVDVSHDDPEVKFNWYVDGVEVHNAKTKPREEQYNATYRVVSVLTVLHQDWLNGKEYKCKVNNKALPAPIEATISKAKGQPREPEVATFPPSRDELTKNQVTLVCLVTGFYPSDIAVEWESNGQPENNYKTDPPLLESQGSFALSSRLRVDKSRWQQGNVFSCSVMHEALHNHYTQKSLSLSPG light: not shown
193	113	–	–	–	–	anti-CD47-UCP02-C1 FAB (Fab, V domains shown, human IgG1 Fab) VH: QVQLVQSGAEVKKPGSSVKVSCKASGGFFSAHTISWVRQAPGQGLEWMGRITAVRGVPTYAQKFQGRVTITADESTSTAYMELSSLRSEDTAVYYCARASYGGPRYYWDGLDIWGQGTLVTVSS VL: not shown
183	190	–	–	–	–	anti-CD47-UCP01-G2 FAB (Fab, V domains shown, human IgG1 Fab) VH: EVQLVESGGGLIQPGGSLRLSCAASGFTVSNSYMTWVRQAPGKGLEWVSVIYKYGKTSYADSVKGRFTISRDNSKNTLYLQMNSLRAEDTAVYYCARGLTVSPYWGGAFDYWGQGTLVTVSS VL: not shown
316	340	–	–	–	–	anti-CD47-UCP01-B3 FAB (Fab, V domains shown, human IgG1 Fab) VH: EVQLVESGGGLIQPGGSLRLSCAASGFTFSNNYMSWVRQAPGKGLEWVSVIYKKGFTNYADSVKGRFTISRDNSKNTLYLQMNSLRAEDTAVYYCARGLSVDKYDGGPFDYWGQGTLVTVSS VL: not shown
822	1070	–	–	–	–	anti-CD47-UCP01-A2 FAB (Fab, V domains shown, human IgG1 Fab) VH: EVQLLESGGGLVQPGGSLRLSCAASGFTFSRFAMGWVRQAPGKGLEWVSIISPNGHVTAYADSVKGRFTISRDNSKNTLYLQMNSLRAEDTAVYYCARDGLSVSSQGVAFDYWGQGTLVTVSS VL: not shown
292	15.9	–	–	–	–	anti-CD47-UCP01-A1 FAB (Fab, V domains shown, human IgG1 Fab) VH: QVQLVQSGAEVKKPGSSVKVSCKASGGFFRLYAFSWVRQAPGQGLEWMGGIIPTDGFVGYAQKFQGRVTITADESTSTAYMELSSLRSEDTAVYYCARSRYYRPYGEYYVVGYGFAYWGQGTLVTVSS VL: not shown
455	17.8	–	–	–	–	anti-CD47-UCP02-H3 FAB (Fab, V domains shown, human IgG1 Fab) VH: QVQLVQSGAEVKKPGSSVKVSCKASGGFFRLYAFSWVRQAPGQGLEWMGGIIPTDGFVGYAQKFQGRVTITADESTSTAYMELSSLRSEDTAVYYCARSRYYRPYGEYYVVGYGFAYWGQGTLVTVSS VL: not shown
1170	1260	–	–	–	–	anti-CD47-UCP01-A3 FAB (Fab, V domains shown, human IgG1 Fab) VH: EVQLVESGGGLIQPGGSLRLSCAASGFTFTNSWMSWVRQAPGKGLEWVSVIYKYGFTEYADSVKGRFTISRDNSKNTLYLQMNSLRAEDTAVYYCARGSSIAAYAYAAPYRGGWMDVWGQGTLVTVSS VL: not shown
136	214	–	–	–	–	anti-CD47-UCP01-G1 FAB (Fab, V domains shown, human IgG1 Fab) VH: EVQLLESGGGLVQPGGSLRLSCAASGFTFSNYAMAWVRQAPGKGLEWVSVISVEGGLTVYADSVKGRFTISRDNSKNTLYLQMNSLRAEDTAVYYCARGSRDSRGKYGAFDVWGQGTLVTVSS VL: not shown
